According to patent publication US20260055186A1:

Target: human CD8 on human T cells (human) (UniProt P01732)
Assay: cell-based or functional assay

Chain of human CD8 on human T cells (human) (P01732 22-235): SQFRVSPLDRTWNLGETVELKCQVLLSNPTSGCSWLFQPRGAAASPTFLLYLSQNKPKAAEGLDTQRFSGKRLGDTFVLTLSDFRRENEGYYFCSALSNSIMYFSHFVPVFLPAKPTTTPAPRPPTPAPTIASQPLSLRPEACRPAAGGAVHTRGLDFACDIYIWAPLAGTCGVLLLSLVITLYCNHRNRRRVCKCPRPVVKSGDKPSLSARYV

Substance	tumor cell survival, SK-MEL-5 with MART-1 T cells [fold]
51.1 (antibody)	2
SK1 (antibody)	2
